Measurements published in US20190314470A1 (UNITED STATES GOVERNMENT AS REPRESENTED BY THE DEPARTMENT …, published 2019).

Target: T1, K-RAS protein (recombinant, abcam) (UniProt P01116-2 1-188, limits assumed)
T1 construct: Bought recombinant protein used in solution in the far western; One partner was labelled with the cysteine-reactive dye NT-647
Experiment: quantification of the anti-RAS far western of FIG. 2E; two VAMP3 preparations
Experimental: Far Western Blotting. […] The membrane was then washed in 5% milk in TBST and incubated with horseradish peroxidase (HRP)-conjugated secondary antibody for 1 hr at RT. The membrane was then developed using the SuperSignal West Dura reagent (ThermoFischer). Quantification was done using ImageJ. For loading controls, duplicate membranes were spotted and immediately stained with a Coomassie Stain Kit (Biorad).

B1: VAMP3 (recombinant, LSbiosciences / MyBiosource) (other, UniProt Q15836 1-77, looked up)
chain: MSTGPTAATGSNRRLQQTQNQVDEVVDIMRVNVDKVLERDQKLSELDDRADALQAGASQFETSAAKLKRKYWWKNCK
notes: Two commercial preparations were spotted in the far western; also called vesicle-associated membrane protein 3
binding result: no binding (tested: 2 µg spotted)
